The values below come from patent US6495314B1, “Process for characterizing proteins” (The Scripps Research Institute, priority 1995, dated 2002).

pKd: −log10 of the molar value. “Also recorded” adds a separate entry of the source.

One assay concerns the target T1, C3G-peptide (Homo sapiens, UniProt Q13905).
T1 construct: made in house; host or cells: chemical synthesis
In words: Binding of Crk-N to the C3G-peptide in solution. The settings on record: purified synthetic Crk-N. The text has this: FIG. 3 illustrates preliminary iterative signature analysis data on residues 156-165 of the peptide Crk-N. a) Represents a comparison of the elution profiles obtained for the protein family using a C3G-peptide agarose column and a Leucine-Enkephalin agarose column (control). […] Single letters refer to amino acid pairs substituted with the -Gly-SCH2CH2CO— marker. d) Comparison of the MALDI MS spectra of the ammonium acetate wash and the entire 9 component synthetic Crk-N family cleaved with ammonium acetate. In both cases the N-terminal peptide ladder is observed at a much higher intensity than the equimolar C-terminal peptide ladder.
The folded protein was structurally characterized by NMR and crystallization (The folded protein was characterized by two dimensional NOESY 1H NMR spectroscopy. In addition, the synthetic protein solution used for NMR analysis spontaneously formed crystals upon storage at 4° C. These crystals diffracted to >2.3 Å allowing for the solution by molecular replacement. Refinement of the structure is in progress). The resulting synthetic protein domain was then assayed for its affinity for two different proline-rich peptides. […] This change in solvent exposure leads to an increase in the fluorescence intensity of the tryptophan sidechain which can be monitored as a function of increasing ligand concentration (Feng et al. Science 1994.266, 1241-1245). […]
One may read the pKd as the negative decadic logarithm of the Kd, by convention in mol/L. For `CC[C@H](C)[C@H](NC(=O)[C@H](CC(=O)O)NC(=O)CNC(=O)[C@H](CCCCN)NC(=O)[C@H](CCCCN)NC(=O)[C@H](Cc1ccccc1)NC(=O)[C@@H]1CCCN1C(=O)[C@H](CC(C)C)NC(=O)[C@H](CC(=O)O)NC(=O)[C@H](CCC(=O)O)NC(=O)[C@H](CCC(=O)O)NC(=O)[C@H](CC(=O)O)NC(=O)[C@H](CC(N)=O)NC(=O)CNC(=O)[C@H](CC(N)=O)NC(=O)[C@H](Cc1ccccc1)NC(=O)[C@H](CC(=O)O)NC(=O)[C@H](Cc1ccccc1)NC(=O)[C@H](CC(C)C)NC(=O)[C@H](C)NC(=O)[C@H](CCCNC(=N)N)NC(=O)[C@@H](NC(=O)[C@H](Cc1ccc(O)cc1)NC(=O)[C@H](CCC(=O)O)NC(=O)[C@H](C)N)C(C)C)C(=O)N[C@@H](CC(C)C)C(=O)N[C@@H](CCCNC(=N)N)C(=O)N[C@H](C(=O)N[C@@H](CCCNC(=N)N)C(=O)N[C@@H](CC(=O)O)C(=O)N[C@@H](CCCCN)C(=O)N1CCC[C@H]1C(=O)N[C@@H](CCC(=O)O)C(=O)N[C@@H](CCC(=O)O)C(=O)N[C@@H](CCC(N)=O)C(=O)N[C@@H](Cc1c[nH]c2ccccc12)C(=O)N[C@@H](Cc1c[nH]c2ccccc12)C(=O)N[C@@H](CC(N)=O)C(=O)N[C@@H](C)C(=O)N[C@@H](CCC(=O)O)C(=O)N[C@@H](CC(=O)O)C(=O)N[C@@H](CO)C(=O)N[C@@H](CCC(=O)O)C(=O)NCC(=O)N[C@@H](CCCCN)C(=O)N[C@@H](CCCNC(=N)N)C(=O)NCC(=O)N[C@@H](CCSC)C(=O)N[C@H](C(=O)N1CCC[C@H]1C(=O)N[C@H](C(=O)N1CCC[C@H]1C(=O)N[C@@H](Cc1ccc(O)cc1)C(=O)N[C@H](C(=O)N[C@@H](CCC(=O)O)C(=O)N[C@@H](CCCCN)C(=O)N[C@@H](Cc1ccc(O)cc1)C(=O)N[C@@H](CCCNC(=N)N)C(=O)O)C(C)C)C(C)C)[C@@H](C)CC)[C@@H](C)CC` [synthetic Crk-N], the pKd is 5.64.

A further assay concerns the target T2, C3G-derived synthetic peptide (Homo sapiens, UniProt Q13905).
T2 construct: made in house; host or cells: chemical synthesis on 4-methyl benzhydrylamine resin
In words: C3G-derived synthetic peptide affinity column binding with MALDI readout. The settings on record: Gly-[COS]-βAla analogue unit; 19-member array, residues 146-165 of c-Crk SH3 domain (Example 3). The method, then:
An affinity column carrying a synthetic C3G derived peptide was prepared by reaction of the cysteine side chain of Acetyl-CWAcp-[…].amide (SEQ NO ID NO 14) with an iodoacetylated agarose matrix. The linker Acetyl-CWAcp- was designed to combine a reactive sulfhydryl on the Cys sidechain with a spectroscopic tag in the Trp residue, and to introduce a flexible spacer region between the support and the peptide ligand in the form of ε-aminocaproic acid. The amount of peptide on the column, was determined as 5 μmol/mL of the swollen agarose matrix from the absorbance at 280 nm of the peptide solution before and after reaction with the column.
The column was then washed with 0.5 M NaCl buffer to remove nonspecific binding proteins from the column. Specifically bound protein analogues were then eluted with 1 M hydroxylamine bufffer. Amounts of eluted peptide were monitored by UV absorbance at 280 nm. This procedure was used for both the C3G peptide column and for the control column loaded with Ac-C-AcpYGGFL.amide. The hydroxylamine cleavage of the thioester bond results in the elution of peptide fragments corresponding to the proteins which were able to bind to the affinity column under these conditions. Specific binding was found only for the C3G peptide column.
The composition of the parent array of SH3 protein analogues, as well as the binding and non-binding fractions obtained from affinity chromatography was determined by chemical cleavage and MALDI MS. First, the parent array of folded protein analogues and the 0.5 M NaCl wash from the affinity chromatography of the array were cleaved separately with hydroxylamine. After a desalting step, MALDI mass spectra were obtained for the peptide fragments generated from the (parent) protein array, the salt wash (non-binding) and for the peptide fragments generated by the hydroxylamine elution of the specifically bound analogues (binding). Nine components were present in the array of protein analogues that was added to the C3G column as one mixture (FIG. 26A). […] Three protein analogues, however, were able to bind to the C3G peptide on the column and were eluted only after cleavage with hydroxylamine (FIG. 26C). One of the protein analogues can be identified in both the wash and elution spectra, indicating intermediate folding and/or binding properties for this analogue.
The C3G-derived synthetic peptide affinity column was prepared by adding 10 mg of lyophilized Ac-CWAcp[…].amide (SEQ ID NO 24) (Acp=ε-amino caproic acid) in 2 mL of 50 mM Tris, 5 mM EDTA, pH 8.0 buffer to Sulfolink™ resin (Pierce), equilibrated in the same buffer, for 1 hour while shaking. Unreacted iodoalkyl groups on the resin were then blocked by treatment with 50 mM cystamine, 50 mM Tris, 5 mM EDTA, pH 8.0 buffer for 1 hour. The loading of the column was determined by UV absorbance of the unreacted peptide solution and was approximately 5 μmol/mL. A similar procedure was used to attach the control peptide Ac-CAcpYGGFL.amide (SEQ ID NO 25) to the another batch of the Sulfolink™ support.
Lyophilized crude synthetic polypeptide corresponding to the cCrk SH3 domain (1.5 mg) and BSA (8.5 mg) were dissolved in 20 mM HEPES, 50 mM NaCl, pH 7.3 buffer (400 μL) and loaded on to a 1 mL C3G-derived synthetic peptide affinity column pre-equilibrated with the same buffer. The column was washed with 4 mL each of 50 mM NaCl, 100 mM NaCl, 200 mM NaCl, 300 mM NaCl, 400 mM NaCl, 500 mM NaCl and 1000 mM NaCl, 0.1 M phosphate, pH 7.0 buffer. The column was then washed with 1 M NH2OH 200 mM NH4CO3 pH 6.0 (4 mL) and finally eluted in 6M Gn.HCl 100 mM phosphate pH 6.5 (4 mL). Samples from all column fractions were monitored by absorbance at 280 nm and by HPLC.
Affinity chromatography of the arrays of protein analogues was carried out as follows. […]
For the compound “N^146D^147: c-Crk SH3 domain analogue, dipeptide N146D147 replaced by Gly-[COS]-βAla”, the “binding to C3G peptide affinity column, active (binding) pool” value (from here on “binding to C3G peptide affinity column”) is reported as “displayed appreciable binding”.

Consider “D^163K^164: c-Crk SH3 domain analogue, dipeptide D163K164 replaced by Gly-[COS]-βAla”, for which the “binding to C3G peptide affinity column” value is given as “displayed appreciable binding; also recorded: without significant loss of binding activity”.

Consider “E^148E^149: c-Crk SH3 domain analogue, dipeptide E148E149 replaced by Gly-[COS]-βAla”, for which the “binding to C3G peptide affinity column” value is recorded as “displayed appreciable binding”.

“I^161R^162: c-Crk SH3 domain analogue, dipeptide I161R162 replaced by Gly-[COS]-βAla”: the “binding to C3G peptide affinity column” value was “displayed appreciable binding; also recorded: without significant loss of binding activity”.

Regarding “D^147E^148: c-Crk SH3 domain analogue, dipeptide D147E148 replaced by Gly-[COS]-βAla”, the “binding to C3G peptide affinity column” value was “displayed appreciable binding”.

Consider “K^164P^165: c-Crk SH3 domain analogue, dipeptide K164P165 replaced by Gly-[COS]-βAla”, for which the “binding to C3G peptide affinity column” value is on record as “displayed appreciable binding; also recorded: without significant loss of binding activity”.

“R^162D^163: c-Crk SH3 domain analogue, dipeptide R162D163 replaced by Gly-[COS]-βAla”: the “binding to C3G peptide affinity column” value was “displayed appreciable binding; also recorded: without significant loss of binding activity”.

As for “L^151P^152: c-Crk SH3 domain analogue, dipeptide L151P152 replaced by Gly-[COS]-βAla”, the “binding to C3G peptide affinity column” value was “displayed appreciable binding”.

A further assay concerns the target T1, C3G-peptide.
Test: not given
The settings on record: recombinant Crk-N; read-out: KD for binding the C3G-peptide in solution; cited from earlier work.
Consider “recombinant Crk-N: recombinantly derived cCrk SH3 domain reported by Wu et al. Structure 1995”, for which the pKd is 5.72.
